From article PMC5980749

Molecular target: Wild-type E. coli 70S ribosomes, purified from strain MRE600 (E. coli (endogenous in MRE600)) (UniProt P0A7R5)
Test: co-sedimentation

percent of total NusG recovered in the ribosomal pellet: 19%
stoichiometry N: 1 NusG per 70S
Substance: Escherichia coli transcription factor NusG, His-tagged, wild type (from UniProt P0AFG0 1-181) (natural protein)
